Patent US20110223107A1 (ALETHIA BIOTHERAPEUTICS, published 2011)
Where “and” joins values, the source holds several entries; their conditions need not be identical. Identical values can stand only once. Like-named read-outs stand apart in the source and are kept apart here.

T1: recombinant Fc-KAAG1 fusion protein (full-length KAAG1) (human, UniProt Q9UBP8 1-84, biotinylated with NHS-biotin (sites not given))
T1 construct: also called recombinant human KAAG1; not shown: human Fc domain encoded by expression plasmid pYD5; vector-encoded residues between the Fc and the BamHI cloning site of pYD5
T1 sequence: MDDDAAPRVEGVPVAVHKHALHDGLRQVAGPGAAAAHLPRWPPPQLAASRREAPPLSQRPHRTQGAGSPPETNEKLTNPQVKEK

T2: Fc-fused truncated mutant of KAAG1 spanning amino acids 1-35 (human)
T2 construct: also called truncated mutant of KAAG1 1-35; first 35 amino acids of KAAG1; not shown: human Fc domain encoded by expression plasmid pYD5; vector-encoded residues between the Fc and the BamHI cloning site of pYD5
T2 chain: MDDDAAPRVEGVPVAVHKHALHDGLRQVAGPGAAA

T3: monomeric recombinant KAAG1 (Homo sapiens (Human), UniProt Q9UBP8 1-84, limits assumed)
T3 construct: Analyte of the Biacore experiment
T3 sequence: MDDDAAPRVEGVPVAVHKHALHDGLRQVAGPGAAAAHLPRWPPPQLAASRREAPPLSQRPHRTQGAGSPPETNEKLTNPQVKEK

T4: KAAG1 (Kidney associated antigen 1), endogenous, on cancer cells and in tumour tissue (human, UniProt Q9UBP8 1-84)
T4 construct: also called KAAG1 antigen
T4 sequence: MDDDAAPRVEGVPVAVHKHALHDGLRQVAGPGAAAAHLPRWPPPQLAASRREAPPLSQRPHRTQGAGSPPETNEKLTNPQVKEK


Key:
[1] = biological target: T1, recombinant Fc-KAAG1 fusion protein …; experiment: ELISA
Method: (§1) The 96-well master plate of monoclonal preparations contained different concentrations of purified anti-KAAG1 Fabs in each well. A second stock master plate was prepared by diluting the Fabs to a final concentration of 10 μg/ml from which all subsequent dilutions were performed for ELISA measurements. To carry out the binding of Fc-KAAG1 to the monoclonal preparations, the Fc-KAAG1 was biotinylated with NHS-biotin (Pierce, Rockford, Ill.) and 10 ng/well was coated in a streptavidin 96-well plate. One nanogram of each Fab monoclonal preparation was added to each well and incubated at room temperature for 30 minutes. Bound antibody was detected with HRP-conjugated mouse anti-kappa light chain antibody in the presence of TMB liquid substrate (Sigma-Aldrich Canada Ltd., Oakville, ON) and readings were conducted at 450 nm in microtiter plate reader.

[2] = biological target: T1, recombinant Fc-KAAG1 fusion protein …; experiment: ELISA; remark: listed apart in the source
[3] = biological target: T2, Fc-fused truncated mutant of KAAG1 …; experiment: ELISA
biotinylated Fc domain = biological target: T5, biotinylated Fc domain (UniProt P01857-1 104-330 = IgG part, limits assumed, biotinylated); experiment: ELISA, biotinylated Fc domain on streptavidin plate, Fab detected with HRP anti-kappa
T5 construct: domain: Fc domain; Control antigen of the Fab ELISA; also called Fc domain (control)
Method: as §1

[4] = biological target: T1, recombinant Fc-KAAG1 fusion protein …; experiment: ELISA on Fc-KAAG1
Method: as §1
Expression of human IgG1s in 293E cells—The expression vectors prepared above that encoded the light and heavy chain immunoglobulins were expressed in 293E cells using the transient transfection system (Durocher et al., 2002). The methods used for co-transfecting the light and heavy chain expression vectors were described in Example 3. […] The ability of the chimeric anti-KAAG1 monoclonal antibodies to bind to recombinant Fc-KAAG1 was measured in the ELISA and compared with the original mouse Fabs. The method was described in Example 3. […]

[5] = biological target: T3, monomeric recombinant KAAG1; experiment: SPR (Biacore): antibody captured on immobilised anti-human Fc, monomeric recombinant KAAG1 injected, global 1:1 fit; average KD; chimeric light + chimeric heavy chain, 'CC' in FIG. 18B
Method: (§2) More precise measurements were conducted using Surface Plasmon Resonance (SPR) in a Biacore instrument. Kinetic analysis was used to compare the affinity of the chimeric 3D3 with the h3D3 as well as with hybrid antibodies encompassing different permutations of the light and heavy chains (see FIG. 18B). Briefly, anti-human Fc was immobilized on the Biacore sensor chip and chimeric or h3D3 was captured on the chip. Different concentrations of monomeric recombinant KAAG1 were injected and the data were globally fitted to a simple 1:1 model to determine the kinetic parameters of the interaction.

[6] = biological target: T4, KAAG1 (Kidney associated antigen 1), …; experiment: cell-based ELISA on fixed, non-permeabilised OV-90 cells
Method: (§3) KAAG1 is expressed on the surface of ovarian cancer cells. […] Following extensive washing of the cells, bound antibody was detected with HRP-conjugated anti-human IgG as a secondary antibody in a modified cell-based ELISA (see FIG. 16A). […] Additionally, the 3D3 antibody produced the strongest signal implying that the epitope targeted by this antibody was the most accessible in this assay. […] A second approach used was flow cytometry. In this case, a mouse 3D3 anti-KAAG1 antibody was incubated with SKOV-3 ovarian cancer cells at saturating conditions and following extensive washing, the bound 3D3 anti-KAAG1 antibody was detected with anti-mouse IgG conjugated to FITC in a flow cytometer.

[7] = biological target: T4, KAAG1 (Kidney associated antigen 1), …; experiment: cell-based ELISA on fixed, non-permeabilised TOV-21G cells
Method: as §3

[8] = biological target: T3, monomeric recombinant KAAG1; experiment: SPR (Biacore), antibody captured by anti-human Fc, 1:1 fit
Method: as §2

[9] = biological target: T1, recombinant Fc-KAAG1 fusion protein …; experiment: ELISA on recombinant Fc-KAAG1
Method: as §1
Since an antibody harboring effector functions was required, the h3D3 was assembled as a human IgG₁. ELISA-based assays were performed to directly compare the ability of the h3D3 […]. The methods used to perform these tests were as described in Example 3 using recombinant Fc-KAAG1.

[10] = biological target: T3, monomeric recombinant KAAG1; experiment: SPR (Biacore): antibody captured on immobilised anti-human Fc, monomeric recombinant KAAG1 injected, global 1:1 fit; average KD; chimeric 3D3 tabulated as 'm3D3' in FIG. 18B
Method: as §2

Binder	OD450 [1]	OD450 [2]	OD450 [3]	binding result (biotinylated Fc domain)	also measured
A9 (Fab, V domains shown, also called Fab of well A9) VH: QVQVQQPGAELVRPGASVTLSCKASGYIFTDYEVHWVRQRPVHGLEWIGVIDPETGDTAYNQKFKGKATLTADKSSSTAYMELSSLTAEDSAVYYCIGYADYWGQGTTLTVSS VL: DIVMTQSPSSLAMSLGQKVTMSCKSSQSLLNSNNQLNYLAWYQQKPGQSPKLLVYFASTRKSGVPDRFIGSGSGTDFTLTITSVQAEDLADYFCQQHFNTPLTFGAGTKLELK	1.53	1.53	0.1		
Fab of well C2 (Omniclonal AL0003Z1 plate) (Fab, V domains shown) VH: DVQLQESGPDLVKPSQSLSLTCTVTGFSITSGYGWHWIRQFPGNKLEWMGYISFNGDSNYNPSLKSRISITRDTSKNQFFLQLNSVTSEDTATYYCASSYDGLFAYWGQGPLVTVSA VL: DIQMTQSPSSMYASLGERVTLTCKASQDIHNYLNWFQQKPGKSPKTLIHRANRLVAGVPSRFSGSGSGQDYSLTISSLEYEDLGIYYCLQYDAFPLTFGAGTKLELK	0.32	0.32	1.97	no binding	
C3 (Fab, V domains shown, also called Fab of well C3) VH: EVQLQQSVAEVVRPGASVTLSCKASGYTFTDYEIHWVKQTPVHGLEWIGVIDPETGVTAYNQRFRDKATLTTDKSSSTAYMELSSLTSEDSAVYFCMGYSDYWGQGTTLTVSS VL: not shown	1.04	1.04			
3C4 mouse anti-KAAG1 Fab (Fab, V domains shown, Recombinant mouse Fab prepared from E. coli; also called 3C4 Fab; well C4) VH: EVQLQESGPDLVKPSQSLSLTCTVTGFSITSGYGWHWIRQFPGNKLEWMGYINYDGHNDYNPSLKSRISITQDTSKNQFFLQLNSVTTEDTATYYCASSYDGLFAYWGQGTLVTVSA VL: DIVMSQSPSSMYASLGERVTITCKASQDIHNFLNWFQQKPGKSPKTLIFRANRLVDGVPSRFSGSGSGQDYSLTISSLEFEDLGIYSCLQYDEIPLTFGAGTKLELR	0.25	0.25	1.93	no binding	
Fab of well D1 (Omniclonal AL0003Z1 plate) (Fab, V domains shown) VH: EVQLQESGPDLVKPSQSLSLTCTVTGFSITSGYGWHWIRQFPGDKLEWMGYISFNGDYNYNPSLKSRISITRDTSKNQFFLQLSSVTTEDTATYYCASSYDGLFAYWGQGTLVTVSA VL: DIKMTQSPSSMYASLGERVTITCKASQDIHTYLNWFQQKPGKSPETLIYRANRLVDGVPSRFSGSGSGQDYSLTISSLEYEDMGIYYCLQYDEFPLTFGAGTKLELK	0.15	0.15	1.21	no binding	
3D3 mouse anti-KAAG1 Fab (Fab, V domains shown, Recombinant mouse Fab prepared from E. coli, from Omniclonal AL0003Z1; also called 3D3 Fab) VH: EVQLQQSVAELVRPGASVTLSCKASGYIFTDYEIHWVKQTPVHGLEWIGVIDPETGNTAFNQKFKGKATLTADISSSTAYMELSSLTSEDSAVYYCMGYSDYWGQGTTLTVSS VL: DIVMTQSPSSLAVSIGQKVTMNCKSSQSLLNSNFQKNFLAWYQQKPGQSPKLLIYFASTRESSIPDRFIGSGSGTDFTLTISSVQAEDLADYFCQQHYSTPLTFGAGTKLELK	1.21	1.21		no binding	EC50 (read off the curve) [4]: ~0.5 µg/mL
Fab of well E10 (Omniclonal AL0003Z1 plate) (Fab, V domains shown) VH: EVQLQQSGPELVKPGASVKISCKASGDTFTDYYMNWVKQSHGKSLEWIGDINPNYGGITYNQKFKGKATLTVDTSSSTAYMELRGLTSEDSAVYYCQAYYRNSDYWGQGTTLTVSS VL: DIVMTQAAPSVPVTPGESVSISCRSSKSLLHSNGNTYLYWFLQRPGQSPQLLIYRMSNLASGVPDRFSGSGSGTAFTLRISRVEAEDVGVYYCMQHLEYPYTFGGGTKLEIK	0.02	0.02			
G8 (Fab, V domains shown, also called Fab of well G8) VH: QVQLKQSGAELVRPGASVTLSCKASGYTFTDYEVHWVKQTPVHGLEWIGVIDPATGDTAYNQKFKGKATLTADKSSSTAYMEVSSLTSEDSAVYYCMGYSDYWGQGTTLTVSS VL: not shown	1.72	1.72			
3G10 mouse anti-KAAG1 Fab (Fab, V domains shown, Recombinant mouse Fab prepared from E. coli; also called 3G10 Fab; well G10) VH: EIQLQQSGPELVKPGASVKISCKASGYTFTDNYMNWVKQSHGKSLEWIGDINPYYGTTTYNQKFKGKATLTVDKSSRTAYMELRGLTSEDSAVYYCARDDWFDYWGQGTLVTVSA VL: DVLMTQTPRSLSVSLGDQASISCRSSQSLLHSNGNTYLEWYLQKPGQPPKVLIYKVSNRFSGVPDRFSGSGSGTDFTLKISGVEAEDLGVYYCFQGSHVPLTFGAGTKLELK	2.78	2.78		no binding	
G12 (Fab, V domains shown, also called Fab of well G12) VH: EVQLQQSVAELVRPGASVTVSCKASGYIFTDYEIHWVKQTPAHGLEWIGVIDPETGNTAFNQKFKGKATLTADISSSTAYMELSSLTSEDSAVYYCMGYSDYWGQGTTLTVSS VL: DIVMTQSPKFMSTSVGDRVSITCKASQDVGTAVAWYQQKPGQSPELLIYWTSTRHTGVPDRFSGSGSGTDFTLTISSVQAEDLADYFCQQHYSIPLTFGAGTKLELR	1.38	1.38			
3D3 mouse-human chimeric IgG1 anti-KAAG1 monoclonal antibody (antibody, V domains shown, Mouse variable regions on human kappa and human IgG1 constant regions, expressed in 293E cells; also called chimeric 3D3; 3D3 chimeric IgG1) VH: EVQLQQSVAELVRPGASVTLSCKASGYIFTDYEIHWVKQTPVHGLEWIGVIDPETGNTAFNQKFKGKATLTADISSSTAYMELSSLTSEDSAVYYCMGYSDYWGQGTTLTVSS VL: DIVMTQSPSSLAVSIGQKVTMNCKSSQSLLNSNFQKNFLAWYQQKPGQSPKLLIYFASTRESSIPDRFIGSGSGTDFTLTISSVQAEDLADYFCQQHYSTPLTFGAGTKLELKA					Kd [5]: 0.271 nM; EC50 (read off the curve) [6]: ~0.9 µg/mL; EC50 (read off the curve) [7]: ~0.6 µg/mL; Ka [8]: 4.5e+09 M⁻¹ and 2.71e+09 M⁻¹; Kd [8]: 0.368 nM; koff [8]: 0.00065 s⁻¹ and 0.00073 s⁻¹; kon [8]: 2.91e+06 M⁻¹ s⁻¹ and 1.98e+06 M⁻¹ s⁻¹; EC50 (read off the curve) [9]: ~0.4 µg/mL; Kd [10]: 0.235 nM
3C4 mouse-human chimeric IgG1 anti-KAAG1 monoclonal antibody (antibody, V domains shown, Mouse variable regions on human kappa and human IgG1 constant regions, expressed in 293E cells; also called chimeric 3C4) VH: EVQLQESGPDLVKPSQSLSLTCTVTGFSITSGYGWHWIRQFPGNKLEWMGYINYDGHNDYNPSLKSRISITQDTSKNQFFLQLNSVTTEDTATYYCASSYDGLFAYWGQGTLVTVSA VL: DIVMSQSPSSMYASLGERVTITCKASQDIHNFLNWFQQKPGKSPKTLIFRANRLVDGVPSRFSGSGSGQDYSLTISSLEFEDLGIYSCLQYDEIPLTFGAGTKLELRA					EC50 (read off the curve) [6]: ~0.6 µg/mL
